Measured values reported in patent US12679878B2, “CRF2 receptor agonists and their use in therapy” (SANOFI, priority 2020, dated 2026).
Starred links: 1 amine or outer side, 2 acyl side, 3 side chain; linkers in the order of their positions; H or OH if unused. Groups on a side chain read outwards from the residue. No end group written: not given here. *: point of attachment. C20 diacid = O=C(O)CCCCCCCCCCCCCCCCCCC(=O)*; C18 diacid = O=C(O)CCCCCCCCCCCCCCCCC(=O)*; γGlu = O=C(O)[C@H](CCC(=O)[*:2])N[*:1]; AEEA = NCCOCCOCC(=O)O

B1: peptide of SEQ ID NO: 35 (peptide)
peptide: IVLSLDVPIKLK([AEEA-AEEA-γGlu-C18 diacid])KILLEQEKQKKQREQAETNKQILAQV-NH2
modifications: N-terminus assumed
SMILES: CC[C@H](C)[C@H](N)C(=O)N[C@H](C(=O)N[C@@H](CC(C)C)C(=O)N[C@@H](CO)C(=O)N[C@@H](CC(C)C)C(=O)N[C@@H](CC(=O)O)C(=O)N[C@H](C(=O)N1CCC[C@H]1C(=O)N[C@H](C(=O)N[C@@H](CCCCN)C(=O)N[C@@H](CC(C)C)C(=O)N[C@@H](CCCCNC(=O)COCCOCCNC(=O)COCCOCCNC(=O)CC[C@H](NC(=O)CCCCCCCCCCCCCCCCC(=O)O)C(=O)O)C(=O)N[C@@H](CCCCN)C(=O)N[C@H](C(=O)N[C@@H](CC(C)C)C(=O)N[C@@H](CC(C)C)C(=O)N[C@@H](CCC(=O)O)C(=O)N[C@@H](CCC(N)=O)C(=O)N[C@@H](CCC(=O)O)C(=O)N[C@@H](CCCCN)C(=O)N[C@@H](CCC(N)=O)C(=O)N[C@@H](CCCCN)C(=O)N[C@@H](CCCCN)C(=O)N[C@@H](CCC(N)=O)C(=O)N[C@@H](CCCNC(=N)N)C(=O)N[C@@H](CCC(=O)O)C(=O)N[C@@H](CCC(N)=O)C(=O)N[C@@H](C)C(=O)N[C@@H](CCC(=O)O)C(=O)N[C@H](C(=O)N[C@@H](CC(N)=O)C(=O)N[C@@H](CCCCN)C(=O)N[C@@H](CCC(N)=O)C(=O)N[C@H](C(=O)N[C@@H](CC(C)C)C(=O)N[C@@H](C)C(=O)N[C@@H](CCC(N)=O)C(=O)N[C@H](C(N)=O)C(C)C)[C@@H](C)CC)[C@@H](C)O)[C@@H](C)CC)[C@@H](C)CC)C(C)C)C(C)C
B2: peptide of SEQ ID NO: 68 (peptide)
peptide: IVLSLDVPIKLK([AEEA-AEEA-γGlu-C18 diacid])QILLEQERQKKQREQAETNKQILAQV-NH2
modifications: N-terminus assumed
SMILES: CC[C@H](C)[C@H](N)C(=O)N[C@H](C(=O)N[C@@H](CC(C)C)C(=O)N[C@@H](CO)C(=O)N[C@@H](CC(C)C)C(=O)N[C@@H](CC(=O)O)C(=O)N[C@H](C(=O)N1CCC[C@H]1C(=O)N[C@H](C(=O)N[C@@H](CCCCN)C(=O)N[C@@H](CC(C)C)C(=O)N[C@@H](CCCCNC(=O)COCCOCCNC(=O)COCCOCCNC(=O)CC[C@H](NC(=O)CCCCCCCCCCCCCCCCC(=O)O)C(=O)O)C(=O)N[C@@H](CCC(N)=O)C(=O)N[C@H](C(=O)N[C@@H](CC(C)C)C(=O)N[C@@H](CC(C)C)C(=O)N[C@@H](CCC(=O)O)C(=O)N[C@@H](CCC(N)=O)C(=O)N[C@@H](CCC(=O)O)C(=O)N[C@@H](CCCNC(=N)N)C(=O)N[C@@H](CCC(N)=O)C(=O)N[C@@H](CCCCN)C(=O)N[C@@H](CCCCN)C(=O)N[C@@H](CCC(N)=O)C(=O)N[C@@H](CCCNC(=N)N)C(=O)N[C@@H](CCC(=O)O)C(=O)N[C@@H](CCC(N)=O)C(=O)N[C@@H](C)C(=O)N[C@@H](CCC(=O)O)C(=O)N[C@H](C(=O)N[C@@H](CC(N)=O)C(=O)N[C@@H](CCCCN)C(=O)N[C@@H](CCC(N)=O)C(=O)N[C@H](C(=O)N[C@@H](CC(C)C)C(=O)N[C@@H](C)C(=O)N[C@@H](CCC(N)=O)C(=O)N[C@H](C(N)=O)C(C)C)[C@@H](C)CC)[C@@H](C)O)[C@@H](C)CC)[C@@H](C)CC)C(C)C)C(C)C

Columns and labels:
[1] = biological target: T1, recombinant human CRF2 (HEK cell membranes) (human, UniProt Q13324 1-411); experiment: radioligand competition against [125]sauvagine (0.1 nM), HEK membranes with recombinant human CRF2; Cheng Prusoff
T1 construct: Whole receptor in membranes prepared from HEK cells; also called CRF2a (h); CRF2 receptor
T1 sequence (looked up): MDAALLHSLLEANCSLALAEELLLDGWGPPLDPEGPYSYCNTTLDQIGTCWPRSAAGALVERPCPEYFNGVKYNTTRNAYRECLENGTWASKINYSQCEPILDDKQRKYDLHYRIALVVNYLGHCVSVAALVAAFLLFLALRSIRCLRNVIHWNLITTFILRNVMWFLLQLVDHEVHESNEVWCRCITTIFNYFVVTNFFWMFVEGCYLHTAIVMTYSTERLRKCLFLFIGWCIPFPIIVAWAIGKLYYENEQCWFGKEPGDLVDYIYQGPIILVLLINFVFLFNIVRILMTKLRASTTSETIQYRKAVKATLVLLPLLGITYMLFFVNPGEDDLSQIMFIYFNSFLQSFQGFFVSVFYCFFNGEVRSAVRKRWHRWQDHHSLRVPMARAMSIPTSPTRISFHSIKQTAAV
Protocol: (§1) HEK cells expressing recombinant human CRF2 were used as a source of receptor for membrane preparation.
(§2) IC50 values (concentration causing a half-maximal inhibition of control specific binding) and Hill coefficients (nH) were determined by non-linear regression analysis of the competition curves generated with mean replicate values using Hill equation curve fitting. The inhibition constants (Ki) were calculated using the Cheng Prusoff equation [Ki=IC50/(1+L/KD) where L is the concentration of radioligand in the assay, and KD is the affinity of the radioligand for the receptor). A Scatchard plot was used to determine the KD.

[2] = biological target: T2, anti-target CRF1R receptor (UniProt P34998 24-415, limits assumed); experiment: cell-based or functional assay
T2 sequence (looked up): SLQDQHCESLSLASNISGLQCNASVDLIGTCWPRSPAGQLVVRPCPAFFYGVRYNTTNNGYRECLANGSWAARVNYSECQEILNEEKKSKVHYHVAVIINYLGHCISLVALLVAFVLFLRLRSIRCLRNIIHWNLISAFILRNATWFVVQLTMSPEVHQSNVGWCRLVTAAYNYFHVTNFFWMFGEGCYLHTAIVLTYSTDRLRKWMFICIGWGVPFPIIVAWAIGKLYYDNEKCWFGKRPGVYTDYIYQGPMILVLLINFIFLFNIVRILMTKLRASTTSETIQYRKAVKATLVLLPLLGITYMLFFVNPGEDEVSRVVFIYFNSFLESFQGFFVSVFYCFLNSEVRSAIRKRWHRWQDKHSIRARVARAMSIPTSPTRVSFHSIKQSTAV

[3] = biological target: T3, endogenous human CRF2 (NCI-H82 cells) (human, UniProt Q13324 20-411); experiment: cell-based or functional assay
T3 sequence (looked up): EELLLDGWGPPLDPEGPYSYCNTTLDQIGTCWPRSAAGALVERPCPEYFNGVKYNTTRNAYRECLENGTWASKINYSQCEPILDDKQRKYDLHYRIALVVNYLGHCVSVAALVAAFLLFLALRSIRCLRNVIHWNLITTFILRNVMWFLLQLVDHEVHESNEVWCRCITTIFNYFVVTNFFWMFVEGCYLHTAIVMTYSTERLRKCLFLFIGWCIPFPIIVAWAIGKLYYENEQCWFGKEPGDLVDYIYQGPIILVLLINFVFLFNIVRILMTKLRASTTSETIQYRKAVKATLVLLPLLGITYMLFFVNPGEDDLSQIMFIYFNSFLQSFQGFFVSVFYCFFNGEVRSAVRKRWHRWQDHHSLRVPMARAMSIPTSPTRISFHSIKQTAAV

[4] = biological target: rat CRF2R α receptor (rat, UniProt P47866 20-411); experiment: cell-based or functional assay
[5] = biological target: T1, recombinant human CRF2 (HEK cell …); experiment: Hill coefficient of the competition curve against [125]sauvagine, HEK membranes with recombinant human CRF2
Protocol: as §1, §2

Row | Binder | Ki [1] [nM] | EC50[nM] 0% HSA (cAMP, CRF1R-overexpression CHO cells) [2] [nM] | Emax (%) (cAMP, CRF1R-overexpression CHO cells) [2] | EC50 [nM] (cAMP, NCI-H82 cells) [3] | EC50 [nM], 0% HSA (cAMP, A7R5 cells) [4] [nM] | nH [5]
1 | FTLSLDVPTKIK([AEEA-AEEA-γGlu-C20 diacid])QILLKQQKQKKERQQAEKNKQLLEQI-NH2 [peptide of SEQ ID NO: 59] | 7.2 | > 1000 | 11.1 | 6.8 | 0.34 | 0.6
2 | B1 | 7.9 | > 1000 | 1.77 | 23 | 0.81 | 1.7
3 | B2 | 5.4 | > 1000 | 12.3 |  | 1.74 | 0.8
